Biological target: T1, monoclonal antibody clone NBH134 #102-3GF
T1 construct: also called TUM antibody; HRP labeled monoclonal antibody
Assay: TUM competitive ELISA: the standard peptide in solution competes with plate-bound …-K-Biotin for the HRP-labelled antibody
Method: Plates were washed five times in washing buffer (20 mM TRIS, 50 mM NaCl, pH 7.2). Subsequently, 20 μL of standard peptide or sample were added to appropriate wells, followed by 100 μL of 7 ng/mL horseradish peroxidase (HRP) labeled monoclonal antibody solution. The plates were incubated for 1 hour at 20° C. with shaking, and subsequently washed in washing buffer. Finally, 100 μL 3,3′,5,5-tetramethylbenzinidine (TMB) (Kem-En-Tec cat. 4380H) was added, and incubated for 15 min at 20° C. To stop the enzyme reaction of TMB, 100 μL of stopping solution (1% H₂SO₄) was added. The plate was analyzed by an ELISA reader at 450 nm with 650 nm as reference (Molecular Devices, VersaMax, CA, USA). A standard curve was performed by serial dilution of the standard peptide and plotted using a 4-parametric mathematical fit model. Standard concentrations were 0, 0.3125, 0.625, 1.25, 2.5, 5, 10, and 20 ng/mL. Each plate included five kit controls to monitor inter-assay variation. All samples were measured within the range of the assay, and all samples below lower limit of measurement range (LLMR) were reported as the value of LLMR.

B1: standard peptide PGLKGKRGDS (peptide)
peptide: PGLKGKRGDS
notes: Synthetic peptide bought from Genscript; also called calibrator peptide; calibration peptide
- IC50: 1.6 ng/mL

Reference: US20230052142A1 (NORDIC BIOSCIENCE A S, published 2023)
